Source: patent publication WO2016171242A1 (dated 2016)

Assays:
[1] = molecular target: T1, human EPHB4 without signal sequence, FLAG-tagged, expressed from pFLAG-EPHB4 (human, UniProt P54760 16-987); test: flow cytometry on transfected 293F cells
T1 construct: not shown: FLAG tag supplied by the vector pFLAG-GW
T1 sequence: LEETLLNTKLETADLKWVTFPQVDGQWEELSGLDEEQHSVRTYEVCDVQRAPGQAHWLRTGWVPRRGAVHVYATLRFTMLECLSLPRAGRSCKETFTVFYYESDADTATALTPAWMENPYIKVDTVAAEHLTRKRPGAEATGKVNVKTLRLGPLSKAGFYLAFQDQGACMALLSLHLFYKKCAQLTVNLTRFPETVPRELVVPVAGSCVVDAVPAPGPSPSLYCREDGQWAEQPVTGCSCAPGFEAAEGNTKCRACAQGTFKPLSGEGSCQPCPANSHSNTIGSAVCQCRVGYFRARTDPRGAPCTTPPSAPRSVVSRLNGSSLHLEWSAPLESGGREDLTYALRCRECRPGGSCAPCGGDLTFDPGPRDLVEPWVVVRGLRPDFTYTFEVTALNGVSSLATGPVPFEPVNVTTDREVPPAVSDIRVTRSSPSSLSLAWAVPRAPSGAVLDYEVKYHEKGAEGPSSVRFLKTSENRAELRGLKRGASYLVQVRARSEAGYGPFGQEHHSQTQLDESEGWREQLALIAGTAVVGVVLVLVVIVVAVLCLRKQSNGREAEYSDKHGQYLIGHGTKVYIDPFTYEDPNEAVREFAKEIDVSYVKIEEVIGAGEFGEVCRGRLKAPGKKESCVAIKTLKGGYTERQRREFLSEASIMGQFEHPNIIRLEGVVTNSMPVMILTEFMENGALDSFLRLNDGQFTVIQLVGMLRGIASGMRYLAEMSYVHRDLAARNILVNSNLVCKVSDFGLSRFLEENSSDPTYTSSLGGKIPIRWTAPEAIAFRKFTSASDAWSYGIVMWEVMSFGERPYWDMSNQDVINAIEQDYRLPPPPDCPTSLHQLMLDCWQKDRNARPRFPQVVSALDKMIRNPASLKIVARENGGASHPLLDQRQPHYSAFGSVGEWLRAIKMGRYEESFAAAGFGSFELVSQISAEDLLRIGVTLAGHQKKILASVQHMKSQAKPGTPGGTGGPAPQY

[2] = molecular target: T2, human PTPRF isoform 2 without signal sequence, FLAG-tagged, expressed from pFLAG-PTPRF-2 (human, UniProt P10586 30-1907); test: flow cytometry on transfected 293F cells
T2 construct: not shown: FLAG tag supplied by the vector pFLAG-GW
T2 sequence (P10586 other isoform, or with tags, fused parts or gaps): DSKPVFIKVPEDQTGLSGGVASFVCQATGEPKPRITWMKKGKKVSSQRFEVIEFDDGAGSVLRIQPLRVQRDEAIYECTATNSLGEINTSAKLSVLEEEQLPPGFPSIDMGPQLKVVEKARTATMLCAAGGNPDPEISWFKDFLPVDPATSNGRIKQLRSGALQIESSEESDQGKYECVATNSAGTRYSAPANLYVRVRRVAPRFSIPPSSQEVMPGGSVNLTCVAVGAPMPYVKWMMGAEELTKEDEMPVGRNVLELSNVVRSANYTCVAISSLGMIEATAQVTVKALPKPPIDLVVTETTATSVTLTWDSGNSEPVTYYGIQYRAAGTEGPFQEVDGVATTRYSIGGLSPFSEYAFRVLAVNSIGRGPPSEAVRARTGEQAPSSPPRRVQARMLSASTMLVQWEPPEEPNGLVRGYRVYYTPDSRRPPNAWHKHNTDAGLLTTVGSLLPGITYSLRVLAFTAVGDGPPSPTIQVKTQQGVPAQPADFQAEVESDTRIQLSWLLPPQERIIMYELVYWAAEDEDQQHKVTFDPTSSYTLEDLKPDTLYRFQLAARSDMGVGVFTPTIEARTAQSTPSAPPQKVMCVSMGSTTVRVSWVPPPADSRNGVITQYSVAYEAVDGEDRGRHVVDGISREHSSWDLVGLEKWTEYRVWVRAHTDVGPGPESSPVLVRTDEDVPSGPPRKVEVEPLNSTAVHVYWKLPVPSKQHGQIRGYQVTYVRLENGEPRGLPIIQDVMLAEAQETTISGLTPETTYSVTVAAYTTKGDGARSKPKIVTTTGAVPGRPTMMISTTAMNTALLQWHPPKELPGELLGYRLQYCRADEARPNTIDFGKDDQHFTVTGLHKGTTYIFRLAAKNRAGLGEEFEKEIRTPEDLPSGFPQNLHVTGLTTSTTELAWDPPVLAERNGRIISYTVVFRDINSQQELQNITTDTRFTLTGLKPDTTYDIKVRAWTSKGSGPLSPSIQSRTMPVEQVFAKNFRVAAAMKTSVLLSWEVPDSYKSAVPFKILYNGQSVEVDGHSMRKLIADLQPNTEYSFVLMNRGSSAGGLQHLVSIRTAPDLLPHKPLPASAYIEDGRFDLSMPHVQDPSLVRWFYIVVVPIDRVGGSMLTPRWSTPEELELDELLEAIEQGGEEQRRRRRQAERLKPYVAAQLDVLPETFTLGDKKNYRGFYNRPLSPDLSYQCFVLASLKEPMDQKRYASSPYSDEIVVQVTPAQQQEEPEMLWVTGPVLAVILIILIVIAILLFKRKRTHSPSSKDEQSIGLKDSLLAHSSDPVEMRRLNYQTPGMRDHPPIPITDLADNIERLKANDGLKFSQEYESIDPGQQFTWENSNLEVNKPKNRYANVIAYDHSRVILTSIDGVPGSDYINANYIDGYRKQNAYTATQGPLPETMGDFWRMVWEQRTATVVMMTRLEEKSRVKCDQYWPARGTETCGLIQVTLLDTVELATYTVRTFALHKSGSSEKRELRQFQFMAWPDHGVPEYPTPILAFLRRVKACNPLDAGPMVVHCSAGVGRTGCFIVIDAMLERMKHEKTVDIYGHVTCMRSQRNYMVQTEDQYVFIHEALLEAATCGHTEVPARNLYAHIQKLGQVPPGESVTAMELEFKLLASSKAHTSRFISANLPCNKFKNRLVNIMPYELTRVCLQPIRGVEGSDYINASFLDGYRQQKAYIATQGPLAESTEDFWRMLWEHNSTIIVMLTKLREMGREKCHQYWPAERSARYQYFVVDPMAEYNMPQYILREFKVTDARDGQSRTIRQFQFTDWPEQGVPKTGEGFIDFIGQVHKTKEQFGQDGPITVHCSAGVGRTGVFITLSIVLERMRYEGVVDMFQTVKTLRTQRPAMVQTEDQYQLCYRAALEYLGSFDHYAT

[3] = molecular target: T3, human EPHA3 without signal sequence, FLAG-tagged, expressed from pFLAG-EPHA3 (human, UniProt P29320 21-983); test: flow cytometry on transfected 293F cells
T3 construct: not shown: FLAG tag supplied by the vector pFLAG-GW
T3 sequence: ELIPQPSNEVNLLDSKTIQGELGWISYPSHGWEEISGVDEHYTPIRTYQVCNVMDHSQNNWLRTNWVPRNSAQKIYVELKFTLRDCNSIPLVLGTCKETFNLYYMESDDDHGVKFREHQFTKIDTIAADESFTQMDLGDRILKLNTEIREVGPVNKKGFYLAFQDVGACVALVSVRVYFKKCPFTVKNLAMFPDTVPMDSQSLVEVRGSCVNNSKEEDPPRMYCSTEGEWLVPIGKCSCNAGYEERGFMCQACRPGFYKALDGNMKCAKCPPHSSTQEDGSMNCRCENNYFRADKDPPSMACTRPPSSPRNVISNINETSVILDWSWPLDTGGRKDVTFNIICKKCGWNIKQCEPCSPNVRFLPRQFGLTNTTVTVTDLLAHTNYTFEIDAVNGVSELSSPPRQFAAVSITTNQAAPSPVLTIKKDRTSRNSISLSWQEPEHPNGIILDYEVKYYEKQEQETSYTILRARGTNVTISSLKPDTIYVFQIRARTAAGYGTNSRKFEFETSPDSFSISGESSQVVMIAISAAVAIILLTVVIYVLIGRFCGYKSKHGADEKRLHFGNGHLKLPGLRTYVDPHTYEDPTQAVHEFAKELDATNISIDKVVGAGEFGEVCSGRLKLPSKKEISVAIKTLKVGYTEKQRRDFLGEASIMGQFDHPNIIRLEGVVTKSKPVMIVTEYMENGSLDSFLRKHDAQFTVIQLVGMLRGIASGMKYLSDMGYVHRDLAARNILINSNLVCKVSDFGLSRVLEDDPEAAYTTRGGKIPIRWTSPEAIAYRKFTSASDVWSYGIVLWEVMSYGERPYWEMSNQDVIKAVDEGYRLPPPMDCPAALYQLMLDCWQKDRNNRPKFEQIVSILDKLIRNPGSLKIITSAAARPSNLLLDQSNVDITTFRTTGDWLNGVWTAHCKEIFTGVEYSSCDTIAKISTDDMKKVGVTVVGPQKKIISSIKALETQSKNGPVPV

[4] = molecular target: T4, human EPHA7 without signal sequence, FLAG-tagged, expressed from pFLAG-EPHA7 (human, UniProt Q15375 28-998); test: flow cytometry on transfected 293F cells
T4 construct: not shown: FLAG tag supplied by the vector pFLAG-GW
T4 sequence (Q15375 28-998): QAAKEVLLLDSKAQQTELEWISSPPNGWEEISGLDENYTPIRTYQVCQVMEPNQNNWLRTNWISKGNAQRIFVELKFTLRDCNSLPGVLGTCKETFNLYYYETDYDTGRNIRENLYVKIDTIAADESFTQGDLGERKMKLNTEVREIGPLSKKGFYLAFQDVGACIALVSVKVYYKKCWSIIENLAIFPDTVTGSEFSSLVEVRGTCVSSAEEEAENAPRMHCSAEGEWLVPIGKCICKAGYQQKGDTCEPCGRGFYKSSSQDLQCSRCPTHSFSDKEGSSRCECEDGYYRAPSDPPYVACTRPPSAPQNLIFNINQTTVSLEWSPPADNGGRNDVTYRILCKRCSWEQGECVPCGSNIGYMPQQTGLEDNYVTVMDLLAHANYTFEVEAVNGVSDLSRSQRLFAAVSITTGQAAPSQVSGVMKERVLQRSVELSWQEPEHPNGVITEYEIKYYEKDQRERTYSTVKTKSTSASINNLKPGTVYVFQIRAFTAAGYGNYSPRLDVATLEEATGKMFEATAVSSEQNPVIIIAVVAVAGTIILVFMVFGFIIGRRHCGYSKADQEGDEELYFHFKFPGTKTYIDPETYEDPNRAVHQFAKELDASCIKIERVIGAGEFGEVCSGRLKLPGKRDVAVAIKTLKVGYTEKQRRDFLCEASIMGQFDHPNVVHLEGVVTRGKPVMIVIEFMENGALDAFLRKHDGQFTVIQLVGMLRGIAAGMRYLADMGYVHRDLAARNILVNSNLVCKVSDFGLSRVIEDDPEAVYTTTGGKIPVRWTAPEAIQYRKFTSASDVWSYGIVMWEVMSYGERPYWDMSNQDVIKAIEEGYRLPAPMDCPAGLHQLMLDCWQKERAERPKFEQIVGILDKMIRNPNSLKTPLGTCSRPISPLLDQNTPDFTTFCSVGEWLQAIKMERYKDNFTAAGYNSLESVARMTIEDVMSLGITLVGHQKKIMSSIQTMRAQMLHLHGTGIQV

[5] = molecular target: T5, endogenous human EPHA2 (on MDA-MB-231 cells or 293F cells) (human, UniProt P29317 24-976); test: immunohistochemistry on formalin-fixed, paraffin-embedded MDA-MB-231 cells
T5 construct: Untagged protein made by the cell lines themselves; also called endogenous EPHA2; EPHA2 endogenously expressed MDA-MB-231 cells
T5 sequence (P29317 24-976): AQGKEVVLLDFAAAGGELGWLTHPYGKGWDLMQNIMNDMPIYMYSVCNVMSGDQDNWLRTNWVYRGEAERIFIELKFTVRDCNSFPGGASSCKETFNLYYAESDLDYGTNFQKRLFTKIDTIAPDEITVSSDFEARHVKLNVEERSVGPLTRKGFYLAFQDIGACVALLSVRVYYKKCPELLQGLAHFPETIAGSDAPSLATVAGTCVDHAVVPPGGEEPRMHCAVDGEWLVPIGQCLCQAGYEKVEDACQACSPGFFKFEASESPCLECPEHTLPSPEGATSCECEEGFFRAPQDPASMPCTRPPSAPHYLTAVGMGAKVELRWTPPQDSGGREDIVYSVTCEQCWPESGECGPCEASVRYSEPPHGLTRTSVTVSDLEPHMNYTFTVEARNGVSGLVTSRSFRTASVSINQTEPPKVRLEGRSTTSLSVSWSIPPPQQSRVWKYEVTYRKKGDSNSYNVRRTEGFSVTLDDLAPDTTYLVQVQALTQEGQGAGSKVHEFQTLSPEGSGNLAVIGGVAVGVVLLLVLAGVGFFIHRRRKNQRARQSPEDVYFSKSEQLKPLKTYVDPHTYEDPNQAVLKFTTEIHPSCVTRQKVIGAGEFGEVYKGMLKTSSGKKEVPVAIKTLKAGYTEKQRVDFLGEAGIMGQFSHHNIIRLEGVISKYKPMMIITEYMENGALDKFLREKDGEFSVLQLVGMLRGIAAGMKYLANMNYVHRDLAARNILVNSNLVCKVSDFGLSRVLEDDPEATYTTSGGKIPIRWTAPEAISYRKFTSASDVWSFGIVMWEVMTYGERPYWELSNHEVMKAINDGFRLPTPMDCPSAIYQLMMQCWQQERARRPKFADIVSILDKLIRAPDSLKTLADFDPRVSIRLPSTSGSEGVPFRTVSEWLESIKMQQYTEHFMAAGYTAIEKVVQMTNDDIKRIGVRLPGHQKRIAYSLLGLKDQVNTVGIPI

[6] = molecular target: T6, human EPHA2 without signal sequence, FLAG-tagged, expressed from pFLAG-EPHA2 (human, UniProt P29317 24-976); test: immunohistochemistry on formalin-fixed, paraffin-embedded 293F cells transiently expressing EPHA2; antibody at 2.5 μg/mL
T6 construct: formalin-fixed, paraffin-embedded; not shown: FLAG tag supplied by the vector pFLAG-GW (from pFLAG-myc-CMV19)
T6 sequence (P29317 24-976): as above

B1: mouse anti-human EPHA2 antibody A201 (antibody, V domains shown)
VH: EVQLQQSGAELVKPGASVKLSCTVSGFTFKDTYVHWVKQRPEQGLEWIGRIDPANANTKYDPKFQGKASITADTSSNTAYLQLSSLPSEDTAVYYCAAYGKSAWFAYWGQGTLVTVSA
VL: DIQMTQTTSSLSASLGDRVTISCRASQDIGNYLNWYQQKPDGTVKVLIYYTSRLHSGVPSRFSGSGSGTDYSLTISNLEQEDIATYFCQQGHSLPPTFGGGTKLEIKR
notes: Mouse monoclonal antibody purified from hybridoma supernatant, isotype IgG1; also called A201 antibody
B1: no binding [1]; no binding [2]; no binding [3]. B1: no binding [4]; binds [5]; binds [6].

B2: mouse anti-human EPHA2 antibody A205 (antibody, V domains shown)
VH: QIQLVQSGPELKKPGETVKISCKASGYTFTDYSMNWVKQAPGKGLKWMGWINTYTGEPTYADDFKGRFAFSLETSASTAYLQINNLKNEDTATYFCASPISLLRLLDYWGQGTTLTVSS
VL: DVVMTQTPLSLPVSLGDQASIPCRSSQSLVHSNGNTYLHWYLQKPGQSPKLLIYKVSNRFSGVPDRFSGSGSGTDFTLKISRVEAEDLGVYFCSQSTHVPWTFGGGTKLEIKR
notes: Mouse monoclonal antibody purified from hybridoma supernatant, isotype IgG2b; also called A205 antibody
B2: no binding [1]; no binding [2]; no binding [3]. B2: no binding [4]; binds [5]; binds [6].
